In one series the target is T1, F-CphI C84S (cyanophage S-PM2, UniProt Q7Y4H4 1-142, C84S).
T1 sequence: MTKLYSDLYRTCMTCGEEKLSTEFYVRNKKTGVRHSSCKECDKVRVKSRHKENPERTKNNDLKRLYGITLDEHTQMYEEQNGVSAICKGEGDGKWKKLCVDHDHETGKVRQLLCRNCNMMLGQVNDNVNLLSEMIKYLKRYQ
The series is described as follows: EMSA; no Mg2+ added; EMSA: 10 mM Tris-HCl pH 8.0, 2% glycerol, 2 ug/ml poly-dIdC, 2 ug/ml BSA, 0.2 mM DTT, on ice 15 min, 2 nM labeled DNA; 8% native PAGE in 1X TBE. Particulars: protein: recombinant; tags: C-terminal Myc-His; label: 5'-32P on top strand; blunt. (In general: Mobility shift assays separate free from complexed probe on a gel.)

Another series concerns the target T2, F-CphI N118D (cyanophage S-PM2, UniProt Q7Y4H4 1-142, N118D).
T2 sequence: T1 sequence with S84C, N118D
The description is as above. Particulars: protein: recombinant; tags: C-terminal Myc-His; label: 5'-32P on top strand; blunt.

Positions count from the first letter of the chain named.

B1: SBM4-60Top duplex (dsDNA)
DNA 1: TGGTCTGGGTATGGAAGTGATGCACGAGCGCAACGCTCACAACTTCCCTCTCGACCTTGC
DNA 2: GCAAGGTCGAGAGGGAAGTTGTGAGCGTTGCGCTCGTGCATCACTTCCATACCCAGACCA
Turning to B1, the binding result in the series with F-CphI C84S and in the series with F-CphI N118D was “no binding” in each case.
